Reference: article PMC3458569 (Nucleic Acids Research, 2012)

Assays:
[1] = target: the molecule itself; test: crystal structure
[2] = target: Bacillus subtilis UvrA (Bacillus subtilis, UniProt O34863 1-957); test: native gel or EMSA
[3] = target: the molecule itself; test: cross-linking
[4] = target: the molecule itself; test: DEER
[5] = target: T1, UvrB wild type (Bacillus subtilis, UniProt P37954 1-661); test: X-ray crystallography
T1 sequence: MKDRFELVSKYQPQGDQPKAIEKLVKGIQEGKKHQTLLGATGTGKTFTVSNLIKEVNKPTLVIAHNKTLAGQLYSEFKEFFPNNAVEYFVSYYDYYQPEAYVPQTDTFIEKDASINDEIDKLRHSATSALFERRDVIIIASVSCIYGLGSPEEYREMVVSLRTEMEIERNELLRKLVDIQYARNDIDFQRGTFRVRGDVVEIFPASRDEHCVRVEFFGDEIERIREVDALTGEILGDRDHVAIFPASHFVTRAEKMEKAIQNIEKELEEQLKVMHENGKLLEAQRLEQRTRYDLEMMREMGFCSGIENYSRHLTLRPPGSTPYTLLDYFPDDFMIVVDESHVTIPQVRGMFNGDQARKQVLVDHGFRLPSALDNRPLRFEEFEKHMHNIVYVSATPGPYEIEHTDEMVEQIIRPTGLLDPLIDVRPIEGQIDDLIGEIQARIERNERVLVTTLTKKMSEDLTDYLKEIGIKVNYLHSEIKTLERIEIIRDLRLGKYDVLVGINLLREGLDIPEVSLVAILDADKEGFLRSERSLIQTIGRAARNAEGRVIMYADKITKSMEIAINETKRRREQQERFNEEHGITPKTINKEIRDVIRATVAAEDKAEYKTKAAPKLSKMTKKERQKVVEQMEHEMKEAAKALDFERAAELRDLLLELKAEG

Chain of Bacillus subtilis UvrA (O34863 whole entry): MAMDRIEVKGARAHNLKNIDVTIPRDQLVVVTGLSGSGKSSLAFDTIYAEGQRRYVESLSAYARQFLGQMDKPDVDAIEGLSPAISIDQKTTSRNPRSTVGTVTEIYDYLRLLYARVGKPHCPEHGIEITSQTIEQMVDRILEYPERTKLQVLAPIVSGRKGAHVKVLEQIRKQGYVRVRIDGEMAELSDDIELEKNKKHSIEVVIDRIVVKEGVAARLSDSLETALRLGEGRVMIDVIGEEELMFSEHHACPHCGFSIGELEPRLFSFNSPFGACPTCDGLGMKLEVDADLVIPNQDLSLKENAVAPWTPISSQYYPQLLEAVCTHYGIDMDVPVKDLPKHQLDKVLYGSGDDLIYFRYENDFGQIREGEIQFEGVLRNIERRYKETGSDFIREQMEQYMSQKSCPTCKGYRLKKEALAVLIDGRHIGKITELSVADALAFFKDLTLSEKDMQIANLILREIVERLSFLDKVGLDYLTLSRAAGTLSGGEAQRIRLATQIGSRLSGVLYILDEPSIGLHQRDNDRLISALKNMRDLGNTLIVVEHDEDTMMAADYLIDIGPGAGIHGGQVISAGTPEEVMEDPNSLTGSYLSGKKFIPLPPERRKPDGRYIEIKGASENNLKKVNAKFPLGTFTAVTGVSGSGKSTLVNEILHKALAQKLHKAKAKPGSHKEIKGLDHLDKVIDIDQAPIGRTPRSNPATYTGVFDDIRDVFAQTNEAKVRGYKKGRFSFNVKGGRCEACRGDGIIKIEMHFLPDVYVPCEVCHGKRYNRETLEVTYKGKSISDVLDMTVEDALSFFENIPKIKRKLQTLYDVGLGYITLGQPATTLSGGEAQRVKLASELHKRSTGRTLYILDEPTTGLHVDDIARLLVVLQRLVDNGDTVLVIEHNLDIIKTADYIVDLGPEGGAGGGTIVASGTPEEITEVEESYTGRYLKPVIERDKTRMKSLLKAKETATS

B1: Bacillus subtilis UvrB (wild type) (natural protein)
chain: MKDRFELVSKYQPQGDQPKAIEKLVKGIQEGKKHQTLLGATGTGKTFTVSNLIKEVNKPTLVIAHNKTLAGQLYSEFKEFFPNNAVEYFVSYYDYYQPEAYVPQTDTFIEKDASINDEIDKLRHSATSALFERRDVIIIASVSCIYGLGSPEEYREMVVSLRTEMEIERNELLRKLVDIQYARNDIDFQRGTFRVRGDVVEIFPASRDEHCVRVEFFGDEIERIREVDALTGEILGDRDHVAIFPASHFVTRAEKMEKAIQNIEKELEEQLKVMHENGKLLEAQRLEQRTRYDLEMMREMGFCSGIENYSRHLTLRPPGSTPYTLLDYFPDDFMIVVDESHVTIPQVRGMFNGDQARKQVLVDHGFRLPSALDNRPLRFEEFEKHMHNIVYVSATPGPYEIEHTDEMVEQIIRPTGLLDPLIDVRPIEGQIDDLIGEIQARIERNERVLVTTLTKKMSEDLTDYLKEIGIKVNYLHSEIKTLERIEIIRDLRLGKYDVLVGINLLREGLDIPEVSLVAILDADKEGFLRSERSLIQTIGRAARNAEGRVIMYADKITKSMEIAINETKRRREQQERFNEEHGITPKTINKEIRDVIRATVAAEDKAEYKTKAAPKLSKMTKKERQKVVEQMEHEMKEAAKALDFERAAELRDLLLELKAEG
stoichiometry N [1]: 2 | binding result [2]: binds

B2: Bacillus subtilis UvrB T481C mutant (natural protein)
chain: MKDRFELVSKYQPQGDQPKAIEKLVKGIQEGKKHQTLLGATGTGKTFTVSNLIKEVNKPTLVIAHNKTLAGQLYSEFKEFFPNNAVEYFVSYYDYYQPEAYVPQTDTFIEKDASINDEIDKLRHSATSALFERRDVIIIASVSCIYGLGSPEEYREMVVSLRTEMEIERNELLRKLVDIQYARNDIDFQRGTFRVRGDVVEIFPASRDEHCVRVEFFGDEIERIREVDALTGEILGDRDHVAIFPASHFVTRAEKMEKAIQNIEKELEEQLKVMHENGKLLEAQRLEQRTRYDLEMMREMGFCSGIENYSRHLTLRPPGSTPYTLLDYFPDDFMIVVDESHVTIPQVRGMFNGDQARKQVLVDHGFRLPSALDNRPLRFEEFEKHMHNIVYVSATPGPYEIEHTDEMVEQIIRPTGLLDPLIDVRPIEGQIDDLIGEIQARIERNERVLVTTLTKKMSEDLTDYLKEIGIKVNYLHSEIKCLERIEIIRDLRLGKYDVLVGINLLREGLDIPEVSLVAILDADKEGFLRSERSLIQTIGRAARNAEGRVIMYADKITKSMEIAINETKRRREQQERFNEEHGITPKTINKEIRDVIRATVAAEDKAEYKTKAAPKLSKMTKKERQKVVEQMEHEMKEAAKALDFERAAELRDLLLELKAEG
binding result [3]: binds

B3: Bacillus subtilis UvrB T481C mutant, spin labeled with PROXYL (natural protein)
chain: MKDRFELVSKYQPQGDQPKAIEKLVKGIQEGKKHQTLLGATGTGKTFTVSNLIKEVNKPTLVIAHNKTLAGQLYSEFKEFFPNNAVEYFVSYYDYYQPEAYVPQTDTFIEKDASINDEIDKLRHSATSALFERRDVIIIASVSCIYGLGSPEEYREMVVSLRTEMEIERNELLRKLVDIQYARNDIDFQRGTFRVRGDVVEIFPASRDEHCVRVEFFGDEIERIREVDALTGEILGDRDHVAIFPASHFVTRAEKMEKAIQNIEKELEEQLKVMHENGKLLEAQRLEQRTRYDLEMMREMGFCSGIENYSRHLTLRPPGSTPYTLLDYFPDDFMIVVDESHVTIPQVRGMFNGDQARKQVLVDHGFRLPSALDNRPLRFEEFEKHMHNIVYVSATPGPYEIEHTDEMVEQIIRPTGLLDPLIDVRPIEGQIDDLIGEIQARIERNERVLVTTLTKKMSEDLTDYLKEIGIKVNYLHSEIKCLERIEIIRDLRLGKYDVLVGINLLREGLDIPEVSLVAILDADKEGFLRSERSLIQTIGRAARNAEGRVIMYADKITKSMEIAINETKRRREQQERFNEEHGITPKTINKEIRDVIRATVAAEDKAEYKTKAAPKLSKMTKKERQKVVEQMEHEMKEAAKALDFERAAELRDLLLELKAEG
modifications: nitroxide spin label 3-(2-iodoacetamido)-proxyl (PROXYL) on C481
binding result [4]: binds

TACTGTTT (ssDNA, T-fluorescein at position 6) [TACTG(TF6)TT 8-mer]
binding result [5]: binds
